Experiments:
Test in all cases: PD-L1 western blot after modulators (EM and MTAs)
Type in all cases: cell-based, human
BT549 cells = settings: Breast BT549, 30 minutes, 3 hours, 24 hours
Excerpt: (§1) Cell lines were acquired from ATCC, Sigma, or DSMZ. Human non-small cell lung carcinoma (NSCLC) cell lines H292 (ATCC no. CRL-1848.), H1299 (ATCC no. CRL-5803), H520 (ATCC no. CRL-5811), CALU6 (ATCC no. HTB-56), H1975 (ATCC no. CRL-5908), H460 (ATCC no. HTB-177), H2126 (ATCC no. CCL-256), H1650 (ATCC no. CRL-5883), and H2087 (ATCC no. CRL-5922) were used for this experiment along with head and neck squamous cell carcinoma (HNSCC) cell lines BHY (DSMZ ACC 404), CAL27 (ATCC no. CRL-2095), KYSE410 (Sigma), and A253 (ATCC no. HTB-41), melanoma cell lines A375 (ATCC no. CRL-1619), COL0853 (Sigma), and MM127 (Sigma) pancreatic cancer cell lines BXPC3 (ATCC no. CRL-1687), colorectal cancer cell lines […], HCT116 (ATCC no. CCL-247EMT), and breast cancer cell lines BT549 (ATCC no. HTB-122), BT20 (ATCC no. HTB-19), and T47D (ATCC no. HTB-133). Cells were maintained in manufacturer-recommended conditions at 37° C. inside humidified 5% CO2 incubators. Sub-cultivation and harvesting for all cell lines were performed using Accutase (GIBCO Life Technologies; cat. no. A1110501) at 37° C. for 10 minutes. Cell viability was measured using trypan blue exclusion staining in conjunction with the Countess II Automated Cell Counter (Thermo Fischer Scientific; cat. no. AMQAX1000). Measurements were made in duplicate and the average number of viable cells was recorded prior to experiments.
(§2) T7039), and IL-10 (50 ng/ml; Sigma Aldrich cat. no. SRP3071) were administered to cell lines for various times including 30 minutes, 3 hour, and 24 hour time intervals prior to cell lysis and protein extraction.
(§3) To determine the effects of the aforementioned molecules on the modulation of PD-L1, we selected various NSCLC, HNSCC, breast cancer, melanoma, colorectal cancer, and pancreatic cancer cell lines as examples. Other diseases or cell lines could be used readily as could more complex samples such as cells isolated from xenografts and clinical samples. Cells were plated, for three different time points (30 minutes, 3 hours, and 24 hours), inside 6-well petri dishes with 2 mL of appropriate medium. Plates were incubated for 24 hours in 5% CO2 incubators at 37° C. After 24 hours, each 6-well plate was washed with PBS (Gibco Life Technologies, cat. no. 10010023) followed by fresh media being added along with each cell line's vehicle control or appropriate modulator for each specific time point, and were placed in CO2 incubators until their modulation time point was reached. Other conditions can be readily used, such as processing on automated systems such as SnapPath. At the end of each time point, while keeping plates on ice, cell lysis was conducted by aspirating culture medium from each plate, washing of each plate three times with 5 ml of cold PBS (Gibco Life Technologies, cat. no. 10010023) and culminated with the addition of cold 1× lysis buffer containing (Cell Signaling, cat. no. 9803 S) protease inhibitor cocktail (Cell Signaling, cat. no. 5871S), phosphatase inhibitor cocktail (Cell Signaling, cat. no. 5870S), and PMSF (Fisher Scientific, cat. no. ICN19538101). Plates were then placed on ice for ten minutes, swirling each plate intermittently. Aliquots of protein lysates were prepared and then stored at −80° C. until protein quantification and Western blot analysis was to be conducted. The protein concentration of each lysate was analyzed by using the Pierce 660 Protein Assay Reagent (Thermo Fisher Scientific, cat. no. 22660) and testing of each sample was conducted in duplicate. Two μg of protein was then loaded per lane into 10% Midi-PROTEAN TGX Precast Gels (Bio Rad, cat. no. 5671034) along with Kaleidoscope Prestained Protein Standard (BioRad, cat. no. 1610375) which ran at 220V for 45 minutes. Proteins were transferred to mini-PVDF membranes (BioRad, cat. no. 1704156) in 3 minutes using the Trans-Blot Turbo Transfer System (BioRad, cat. no. 1704150EDU).

H292 cells = settings: NSCLC H292, 30 minutes, 3 hours, 24 hours
Excerpt: as §1, §2, §3

H460 cells = settings: NSCLC H460, 30 minutes, 3 hours, 24 hours
Excerpt: as §1, §2, §3

H1650 cells = settings: NSCLC H1650, 30 minutes, 3 hours, 24 hours
Excerpt: as §1, §2, §3

Measured: PD-L1 Response

B1: IFNγ: human IFNγ, modulator (10 ng/ml; Sigma Aldrich) (protein, UniProt P01579 24-161, looked up)
Interferon gamma: QDPYVKEAENLKKYFNAGHSDVADNGTLFLGILKNWKEESDRKIMQSQIVSFYFKLFKNFKDDQSIQKSVETIKEDMNVKFFNSNKKKRDDFEKLTNYSVTDLNVQRKAIHELIQVMAELSPAAKTGKRKRSQMLFRG
Up: all assays above
